Several values for one entry are separate records, joined by “and”; a condition that tells them apart may be missing. Equal entries are not always repeated.

In experiment [1] the target is gramicidin A. The experiment in a line: native MS.
The target of experiment [2] is LL-37 (human). The experiment in a line: native MS.

With gramicidin A (peptide), in experiment [1], the stoichiometry N – broadly, a count of units in the complex or per binding partner – stood at 2. LL-37 (peptide): the stoichiometry N in experiment [2] is 2 and 3 and 4.

Values taken from paper PMC6635019.
